Experimental data reported in publication PMC2536506.

Target: GST-TDRD3-Tdr E691K (human)
Experiment: pull-down

Substance | percent reduction of binding against wild-type GST-TDRD3-Tdr
DEAD/H box-3 (from UniProt O00571-1 1-662) (natural protein) | 50%
Eukaryotic translation elongation factor 1 alpha 1 (from UniProt P68104 1-462) (natural protein) | 90%
